Measured values as given in patent US20240124575A1 (SIMCERE ZAIMING PHARMACEUTICAL, published 2024).
Like-named read-outs stand apart in the source and are kept apart here. Each block holds one binder with its values, some of them ahead of it.

What was measured:
monkey CD33-His protein = target: T1, monkey CD33-His protein (monkey); assay: ELISA on coated monkey CD33-his
T1 construct: also called monkey CD33 protein

human CD33-V-his = target: T2, human CD33-V-his (human, UniProt P20138 18-144); assay: ELISA on coated human CD33-V-his
T2 construct: expressed in HEK293E; also called hCD33-V-his; human CD33 protein V-domain; not shown: His tag

human CD33-C2-his [1] = target: T3, human CD33-C2-his (human, UniProt P20138 136-260); assay: ELISA on coated human CD33-C2-his
T3 construct: expressed in HEK293E; also called hCD33-C2-his; human CD33 protein C2-domain; not shown: His tag

[2] = target: T4, human CD33-His (extracellular domain Asp 18-His 259) (human, UniProt P20138 18-259); assay: competitive ELISA vs coated S006-NB147-220 3ug/mL; soluble 25ug/ml
T4 construct: range 18-259; bought protein; also called hCD33-his; human CD33 protein; not shown: His tag

human CD33-C2-his [3] = target: T3, human CD33-C2-his; assay: ELISA on coated human CD33-C2-his; remark: listed apart in the source
Text: Plates were coated with human CD33-V-his (membrane distal end) and human CD33-C2-his (membrane proximal end), respectively, according to the ELISA method in Example 8. The VHH humanized antibodies were classified based on the membrane distal end and the membrane proximal end, as shown in FIGS. 20A-20J and Table 44, which allowed the classification of the VHH humanized antibodies into the following classes: […]

[4] = target: T4, human CD33-His (extracellular domain …); assay: competitive ELISA vs coated SGN-33 2ug/mL; soluble 25ug/ml
Method: VHH antibodies and control antibodies with known epitopes were subjected to epitope classification with competitive ELISA. ELISA plates were coated with 2 μg/mL antibodies according to the method in Example 5.1; the human CD33-his protein was subjected to a gradient dilution from 30 μg/mL, and EC80 values (Tables 26-27) were calculated. ELISA plates were coated with 2 μg/mL antibodies; after 25 µg/mL of antibodies to be tested were added, a human CD33-his protein having an EC80 concentration corresponding to each of the antibodies to be tested was then added for incubation for 2 h. The plates were washed 5 times with PBS, then HRP-labeled anti-His antibodies (purchased from GenScript, Cat. No. A00612) were added for incubation for 1 h, and the plates were washed 5 times. A TMB substrate was added at 50 μL/well and incubated at room temperature for 10 min, then a stop solution (1.0 M HCl) was added at 50 μL/well. OD_{450 nm} values were read using an ELISA plate reader (Insight, purchased from PerkinElmer), and the competition rate between the antibodies was calculated according to the OD_{450 nm} values using a formula. The results are shown in FIGS. 12A-12B, the higher the value of the competition rate, the closer the epitopes to which two antibodies bind.

[5] = target: T4, human CD33-His (extracellular domain …); assay: competitive ELISA vs coated C33B904 3ug/mL; soluble 25ug/ml
human CD33-his protein [6] = target: T5, human CD33-his protein (human, UniProt P20138 18-259); assay: SPR (Biacore), antibody captured on Protein A chip, human CD33-his analyte
T5 construct: range 18-259; bought protein; also called hCD33-his; recombinant human CD33-his; not shown: His tag
Method: The sample and running buffer was HBS-EP+ (10 mM HEPES, 150 mM NaCl, 3 mM EDTA, 0.05% surfactant P20) (GE Healthcare; BR-1006-69). The flow cell was set at 25° C. The sample block was set at 16° C. Both were pretreated with the running buffer. In each cycle, first, the antibody to be tested was captured using the Protein A chip, and then a single concentration of CD33 antigen protein was injected. The association and dissociation processes of the antibody with the antigen protein were recorded, and finally, the chip was regenerated using Glycine pH 1.5 (GE Healthcare; BR-1003-54). The association was determined by injecting different concentrations of recombinant human CD33-his in the solution and maintaining for 240 s, wherein the flow rate was 30 μL/min, and the protein was diluted in a 1:1 dilution ratio from 200 nM to obtain 5 concentrations in total. The dissociation phase was monitored for up to 600 s and triggered by switching from the sample solution to the running buffer. The surface was regenerated by washing with 10 mM glycine solution (pH 1.5) at a flow rate of 30 μL/min for 30 s. The difference in bulk refractive index was corrected by subtracting the responses obtained from the […]. Blank injections were also subtracted (=double reference). To calculate the apparent KD and other kinetic parameters, the Langmuir 1:1 model was used.

human CD33-his protein [7] = target: T5, human CD33-his protein; assay: competition ELISA, coated human CD33-his, vs Biotin-C33B904 at EC80; antibody 0 nM (no competitor)
Method: (§1) ELISA plates were coated with 2 μg/mL human CD33-his protein according to the method in Example 5.1; the Biotin-C331B904 antibody was subjected to a gradient dilution from 15 μg/mL, and EC80 values (0.18 μg/mL) were calculated. ELISA plates were coated with 2 μg/mL human CD33-his protein; starting from 40 μg/mL, the VHH antibodies to be tested were diluted in a 1:2 dilution ratio to obtain seven concentrations and added to the ELISA plates, and then Biotin-C331904 antibodies with the EC80 concentrations were added for incubation for 2 h. The plates were washed 5 times with PBS and then […] (purchased from Sigma, Cat. No. S2438) were added for incubation for 1 h, and the plates were washed 5 times. A TMB substrate was added at 50 μL/well and incubated at room temperature for 10 min, then a stop solution (1.0 M HCl) was added at 50 μL/well. OD_{450 nm} values were read using an ELISA plate reader (Insight, purchased from PerkinElmer). Then, analysis was performed by software (GraphPad Prism8), and data were fitted for curve plotting. The results are shown in FIGS. 13A-13B and Tables 28 and 29.

human CD33-his protein [8] = target: T5, human CD33-his protein; assay: competition ELISA, coated human CD33-his, vs Biotin-C33B904 at EC80; antibody 1.95 nM
Method: as §1

T5 sequence (P20138 18-259 limits assumed): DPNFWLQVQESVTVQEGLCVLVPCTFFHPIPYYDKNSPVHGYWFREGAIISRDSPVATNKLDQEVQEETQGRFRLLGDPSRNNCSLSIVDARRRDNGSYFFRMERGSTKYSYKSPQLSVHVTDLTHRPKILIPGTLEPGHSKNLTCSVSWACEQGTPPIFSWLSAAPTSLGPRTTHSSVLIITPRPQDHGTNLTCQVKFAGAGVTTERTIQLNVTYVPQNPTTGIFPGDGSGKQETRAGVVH
T4 sequence (P20138 18-259 limits assumed): as above
T3 sequence (P20138 other isoform, or with tags, fused parts or gaps limits assumed): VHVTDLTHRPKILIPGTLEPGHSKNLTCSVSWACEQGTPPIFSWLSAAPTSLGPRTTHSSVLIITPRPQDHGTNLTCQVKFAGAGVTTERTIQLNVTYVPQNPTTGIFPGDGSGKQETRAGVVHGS
T2 sequence (P20138 other isoform, or with tags, fused parts or gaps limits assumed): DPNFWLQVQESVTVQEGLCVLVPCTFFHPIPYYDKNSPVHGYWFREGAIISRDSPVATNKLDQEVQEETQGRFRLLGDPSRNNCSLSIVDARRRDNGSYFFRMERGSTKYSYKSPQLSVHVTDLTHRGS

- EC50 (read off the curve) (monkey CD33-His protein): ~0.2 nM
- binding result (human CD33-V-his): no binding (tested: 100 nM)
- EC50 (read off the curve) (human CD33-C2-his [1]): ~0.4 nM
- inhibition rate [2]: 98%
- EC50 (read off the curve) (human CD33-C2-his [3]): ~0.1 nM
- inhibition rate [4]: 17%
- inhibition rate [5]: 86%
B1: C33B904 hIgG1 (antibody, V domains shown)
VH: EVQLVESGGGLVQPGRSLRLSCAASGFTFDDYAMHWVRQAPGKGLEWVSGIGWSGGSIVYADSVKGRFTISRDNAKNSLYLQMNSLRAEDTALYYCAKDSPYGDFFDYWGQGTLVTVSS
VL: DIVMTQSPDSLAVSLGERATINCKSSQTVFYSSNNKNYLAWYQQKPGQPPKLLISWASTRKSGVPDRFSGSGSGTDFTLTVSSLQAEDVAVYYCQHYYSTPYTFGQGTKLEIKR
notes: intact human IgG1; variable regions from US20190382481A1; also called C33B3904; C331B904

- Kd (human CD33-his protein [6]): 0.079 nM
- koff (human CD33-his protein [6]): 6.54e-05 s⁻¹
- kon (human CD33-his protein [6]): 828000 M⁻¹ s⁻¹
- OD450 (Biotin-C33B904 signal) (human CD33-his protein [7]): 2.35
- OD450 (Biotin-C33B904 signal) (human CD33-his protein [8]): 2.02
B2: C33B904 (antibody, human IgG1, kappa, V domains shown)
VH: B1 VH
VL: B1 VL
notes: control antibody, intact human IgG1 form; variable regions from US20190382481A1; also called C33B904 hIgG1; C331B904
